The target in assay [1] is T1, IL-8RB expressed on lentivirally transduced HEK 293T cells (UniProt P25025 1-360, limits assumed).
T1 construct: whole, on cells; also called IL-8R^+ cells; IL-6Rα^-/IL-8R^+ HEK 293T cells
T1 sequence (looked up): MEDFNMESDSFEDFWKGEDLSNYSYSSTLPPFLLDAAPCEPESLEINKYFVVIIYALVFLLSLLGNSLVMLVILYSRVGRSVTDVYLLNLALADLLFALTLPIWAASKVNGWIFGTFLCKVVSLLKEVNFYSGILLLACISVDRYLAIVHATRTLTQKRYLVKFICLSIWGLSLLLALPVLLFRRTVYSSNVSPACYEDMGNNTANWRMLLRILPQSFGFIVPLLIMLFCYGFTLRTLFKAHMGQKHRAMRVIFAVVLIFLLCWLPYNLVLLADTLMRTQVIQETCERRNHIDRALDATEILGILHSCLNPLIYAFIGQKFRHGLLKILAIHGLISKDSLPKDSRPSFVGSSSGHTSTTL
The experiment in a line: competition with 400 nM His-tagged IL-8 on IL-6Rα-/IL-8R+ HEK 293T cells, flow cytometry. As to the method: (§1) IL-6Rα⁺/IL-8R⁻ and IL-6Rα⁻/IL-8R⁺ HEK 293T cells were cultured as previously described, and were trypsinized, resuspended in PBSA, and aliquoted into 96-well plates (2×10⁵ cells per well). IL-6Rα⁺/IL-8R⁻ 293T cells were incubated with titrations of various monoclonal or bispecific antibodies in the presence of saturating concentration of biotinylated IL-6 (100 nM) (Acro Biosystem, cat #: IL6-H8218-25UG) for 2 hr at 4° C. with rotation. Cells were then washed and incubated with 1:200 dilution of Alexa Fluor 647-conjugated streptavidin (Fisher Scientific, cat #: S21374) in PBSA for 15 min at 4° C. After a final wash, cells were resuspended in PBSA and analyzed on a CytoFLEX flow cytometer (Beckman Coulter). Curves were fitted to a first-order logistic model and IC₅₀ values were calculated using GraphPad Prism data analysis software. Mean fluorescence intensity (MFI) of unstimulated cells was subtracted. Similarly, IL-6Rα⁻/IL-8R⁺ 293T cells were incubated with titrations of various monoclonal or bispecific antibodies with saturating concentration of His-tagged IL-8 (400 nM) (Sino Biological, cat #: 10098-H08Y-100) for 2 hr at 4° C. with rotation. […] After a final wash, cells were resuspended in PBSA and analyzed on a CytoFLEX flow cytometer (Beckman Coulter). Curves were fitted to a first-order logistic model and IC₅₀ values were calculated using GraphPad Prism data analysis software. […]
(In flow cytometry, cells or beads pass a laser one at a time.)

Assay [2] concerns the target T2, human IL-6Rα extracellular domain (ECD), residues 89-303 of the mature protein, with C-terminal biotin … (human, UniProt P08887 108-322, biotinylated with BirA ligase on the biotin acceptor peptide).
T2 construct: range 89-303; The range 89-303 counts on the mature protein, not on the precursor; Any linkers between the ECD, BAP and His tag are not described; also called IL-6Rα ECD; recombinant IL-6Rα
T2 sequence: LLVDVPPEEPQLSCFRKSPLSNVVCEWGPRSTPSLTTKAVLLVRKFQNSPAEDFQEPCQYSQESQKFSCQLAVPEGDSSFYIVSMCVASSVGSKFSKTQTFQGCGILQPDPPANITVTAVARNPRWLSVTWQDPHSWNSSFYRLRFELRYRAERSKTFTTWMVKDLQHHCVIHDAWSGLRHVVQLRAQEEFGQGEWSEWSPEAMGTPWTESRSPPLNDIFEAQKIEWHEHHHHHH
The experiment in a line: competition: antibody against 300 nM biotinylated IL-6Rα ECD binding to IL-6-displaying yeast, flow cytometry. As to the method: Approximately 1×10⁵ human IL-6-displaying yeast per well were plated in a 96-well plate and washed with PBSA. Yeast cells were incubated with saturating concentrations of biotinylated human IL-6Rα (300 nM) and serial dilutions of unlabeled competitor antibody (either the anti-IL-6R antibody tocilizumab, the anti-IL-8R antibody 10H2, BS1, or BS2) in PBSA for 2 hours at room temperature. Cells were then washed and stained with a 1:200 dilution of Alexa647-conjugated streptavidin (Thermo) in PBSA for 15 min at 4° C. Cells were washed again and assessed for human IL-6Rα binding on a CytoFLEX flow cytometer (Beckman Coulter). Background-subtracted fluorescent signal as a fraction of receptor subunit binding in the absence of competitor antibody was plotted. Curves were fitted to a first order logistic model and half maximal inhibitory concentrations (IC₅₀s) were computed using GraphPad Prism. Assays were performed in triplicate and repeated two times with consistent results.
Tocilizumab is known to compete with IL-6 for IL-6Rα engagement. Thus, bispecific binding agents containing the tocilizumab variable regions (BS1 and BS2) were also expected to obstruct cytokine binding. […] However, tocilizumab (IC₅₀=59 nM), BS1 (IC₅₀=190 nM), and BS2 (IC₅₀=78 nM) all inhibited IL-6/IL-6Rα binding.

The target of assay [3] is T3, IL-6R on IL-6-responsive HepG2 cells (UniProt P08887 20-468, limits assumed).
T3 sequence (looked up): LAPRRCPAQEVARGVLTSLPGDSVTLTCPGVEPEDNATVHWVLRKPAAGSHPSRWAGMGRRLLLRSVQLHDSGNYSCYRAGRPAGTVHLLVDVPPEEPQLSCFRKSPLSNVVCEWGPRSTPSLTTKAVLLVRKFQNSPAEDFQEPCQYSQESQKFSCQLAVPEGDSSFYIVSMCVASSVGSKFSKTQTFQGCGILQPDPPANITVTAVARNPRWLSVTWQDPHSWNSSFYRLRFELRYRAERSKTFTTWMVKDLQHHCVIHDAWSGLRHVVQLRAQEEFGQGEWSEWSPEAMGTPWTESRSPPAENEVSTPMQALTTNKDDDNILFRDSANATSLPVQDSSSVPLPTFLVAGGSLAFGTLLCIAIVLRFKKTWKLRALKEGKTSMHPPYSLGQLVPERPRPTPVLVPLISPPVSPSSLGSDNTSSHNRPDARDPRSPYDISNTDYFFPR
The experiment in a line: cell-based or functional assay.

In assay [4] the target is T4, IL-6Rα expressed on lentivirally transduced HEK 293T cells (UniProt P08887 20-468, limits assumed).
T4 construct: whole, on cells; also called IL-6Rα^+ cells; IL-6Rα^+/IL-8R^- HEK 293T cells
T4 sequence (looked up): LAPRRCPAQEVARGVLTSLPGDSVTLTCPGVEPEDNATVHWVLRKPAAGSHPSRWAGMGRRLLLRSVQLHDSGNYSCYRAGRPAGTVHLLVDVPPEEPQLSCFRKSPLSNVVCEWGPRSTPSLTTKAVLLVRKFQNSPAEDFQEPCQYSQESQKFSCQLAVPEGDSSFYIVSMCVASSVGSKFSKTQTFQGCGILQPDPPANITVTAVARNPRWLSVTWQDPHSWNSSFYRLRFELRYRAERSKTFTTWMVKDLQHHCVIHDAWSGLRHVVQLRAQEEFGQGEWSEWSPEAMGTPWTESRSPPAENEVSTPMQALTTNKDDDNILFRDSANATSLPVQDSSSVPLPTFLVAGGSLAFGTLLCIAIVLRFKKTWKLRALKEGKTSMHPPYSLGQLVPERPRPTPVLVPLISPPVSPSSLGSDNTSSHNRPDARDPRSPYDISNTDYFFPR
As to the kind of experiment: competition with 100 nM biotinylated IL-6 on IL-6Rα+/IL-8R- HEK 293T cells, flow cytometry. As to the method: as §1

These results are taken from patent publication US20220251222A1 (Johns Hopkins, published 2022).

B1: BS2 bispecific antibody (scFv-IgG fusion: 10H2 IgG with tocilizumab scFv on the light chains) (bispecific antibody)
heavy: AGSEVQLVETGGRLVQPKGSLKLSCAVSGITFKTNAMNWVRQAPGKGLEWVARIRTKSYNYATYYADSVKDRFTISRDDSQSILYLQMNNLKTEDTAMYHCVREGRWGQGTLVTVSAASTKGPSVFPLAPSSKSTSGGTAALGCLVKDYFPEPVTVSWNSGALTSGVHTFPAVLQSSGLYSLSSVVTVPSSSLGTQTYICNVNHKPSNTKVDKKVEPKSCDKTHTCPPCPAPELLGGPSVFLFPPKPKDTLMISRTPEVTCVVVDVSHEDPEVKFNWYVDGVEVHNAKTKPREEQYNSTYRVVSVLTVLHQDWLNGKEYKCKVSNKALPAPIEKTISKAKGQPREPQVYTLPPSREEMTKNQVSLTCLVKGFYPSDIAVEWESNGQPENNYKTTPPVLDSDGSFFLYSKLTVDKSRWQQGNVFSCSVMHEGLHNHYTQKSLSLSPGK
light: AGSQAVVTQESALTTSPGETVTLTCRSSTGAVTTSNYANWVQEKPDHLFTGLIGGTNNRPPGVPARFSGSLIGDKAALTITGAQIEDEAIYFCALWYSNHLVFGGGTKLTVLRTVAAPSVFIFPPSDEQLKSGTASVVCLLNNFYPREAKVQWKVDNALQSGNSQESVTEQDSKDSTYSLSSTLTLSKADYEKHKVYACEVTHQGLSSPVTKSFNRGECGGGGSGGGGSEVQLQESGPGLVRPSQTLSLTCTVSGYSITSDHAWSWVRQPPGRGLEWIGYISYSGITTYNPSLKSRVTMLRDTSKNQFSLRLSSVTAADTAVYYCARSLARTTAMDYWGQGSLVTVSSGGGGSGGGGSGGGGSDIQMTQSPSSLSASVGDRVTITCRASQDISSYLNWYQQKPGKAPKLLIYYTSRLHSGVPSRFSGSGSGTDFTFTISSLQPEDIATYYCQQGNTLPYTFGQGTKVEIK
notes: Human IgG1-based
In general, IC50 refers to the concentration at which inhibition is half-maximal. Take B1: the IC50 came to 22 nM in assay [1], 78 nM in assay [2] and 96 nM in assay [4]. Moreover, in assay [3], the “inhibition of IL-6-induced STAT3 phosphorylation in HepG2 cells (IC50)” value was found to be 220 nM.

B2: tocilizumab, recombinant monoclonal hIgG1 (anti-IL-6Rα) (antibody, V domains shown)
VH: EVQLQESGPGLVRPSQTLSLTCTVSGYSITSDHAWSWVRQPPGRGLEWIGYISYSGITTYNPSLKSRVTMLRDTSKNQFSLRLSSVTAADTAVYYCARSLARTTAMDYWGQGSLVTVSS
VL: DIQMTQSPSSLSASVGDRVTITCRASQDISSYLNWYQQKPGKAPKLLIYYTSRLHSGVPSRFSGSGSGTDFTFTISSLQPEDIATYYCQQGNTLPYTFGQGTKVEIK
notes: also called anti-IL-6Rα antibody
In the case of B2, the IC50 was 59 nM in assay [2] and 30 nM in assay [4]. The “inhibition of IL-6 signaling (pSTAT3) in HepG2 cells (IC50)” value in assay [3] was 76 nM.
